This test concerns the target monkey BCMA on BCMA-CHO cells (cynomolgus monkey). Put plainly: flow cytometry (MFI) on CHO cells expressing monkey BCMA; EC50 table in the figure; fit value for a flat control curve. In general terms: In flow cytometry, cells or beads pass a laser one at a time.

Chain of monkey BCMA on BCMA-CHO cells (cynomolgus monkey) (chain, as listed by the source): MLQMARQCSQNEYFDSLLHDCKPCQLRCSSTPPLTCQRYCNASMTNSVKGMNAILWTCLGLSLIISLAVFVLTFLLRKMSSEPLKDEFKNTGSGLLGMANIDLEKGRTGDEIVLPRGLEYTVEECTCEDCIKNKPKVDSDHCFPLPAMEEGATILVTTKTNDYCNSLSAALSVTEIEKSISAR

Usually EC50 stands for the concentration that produces a half-maximal response. Irrelevant antibody registered an EC50 of 0.357 µg/mL.
